Measured values published in paper PMC5026484 (eLife, 2016).

Biological target: the molecule itself
Test: crystal structure; X-ray; sitting/hanging-drop vapour diffusion, 20°C; data from beamline X10SA, SLS

B1: Selenomethionine derivative of Mical-3 residues 1841-1990 (domain or fragment, human, UniProt Q7RTP6 1841-1990, looked up)
chain: KQEELKRLHRAQIIQRQLQQVEERQRRLEERGVAVEKALRGEAGMGKKDDPKLMQEWFKLVQEKNAMVRYESELMIFARELELEDRQSRLQQELRERMAVEDHLKTEEELSEEKQILNEMLEVVEQRDSLVALLEEQRLREREEDKDLEA
modifications: selenomethionine in place of methionine
notes: Mical-3, human, whole predicted bMERB domain, residues 1841-1990 (isoform 1); printed elsewhere as 1841-1992; Two copies in the asymmetric unit of the crystal; also called SeMet Mical-3; seleno-L-methionine labelled Mical-3_(1841–1990)
binding result: binds
